Here are results for one molecule from patent US20110300579A1 (UNIVERSITY OF SOUTHERN CALIFORNIA, published 2011).

Assay [1] has as its target soluble recombinant α5β1 integrin (R&D Systems) (UniProt P08648 42-995; P05556 21-728).
Assay [2] concerns the target purified soluble αvβ5 integrin (Millipore) (UniProt P06756 31-992; P18084 24-719).
In assay [3] the target is purified soluble αvβ3 integrin (Millipore) (UniProt P06756 31-992; P05106 27-718).
purified soluble αvβ3 integrin (Millipore), sequence (P06756 31-992, chain 1 of 2): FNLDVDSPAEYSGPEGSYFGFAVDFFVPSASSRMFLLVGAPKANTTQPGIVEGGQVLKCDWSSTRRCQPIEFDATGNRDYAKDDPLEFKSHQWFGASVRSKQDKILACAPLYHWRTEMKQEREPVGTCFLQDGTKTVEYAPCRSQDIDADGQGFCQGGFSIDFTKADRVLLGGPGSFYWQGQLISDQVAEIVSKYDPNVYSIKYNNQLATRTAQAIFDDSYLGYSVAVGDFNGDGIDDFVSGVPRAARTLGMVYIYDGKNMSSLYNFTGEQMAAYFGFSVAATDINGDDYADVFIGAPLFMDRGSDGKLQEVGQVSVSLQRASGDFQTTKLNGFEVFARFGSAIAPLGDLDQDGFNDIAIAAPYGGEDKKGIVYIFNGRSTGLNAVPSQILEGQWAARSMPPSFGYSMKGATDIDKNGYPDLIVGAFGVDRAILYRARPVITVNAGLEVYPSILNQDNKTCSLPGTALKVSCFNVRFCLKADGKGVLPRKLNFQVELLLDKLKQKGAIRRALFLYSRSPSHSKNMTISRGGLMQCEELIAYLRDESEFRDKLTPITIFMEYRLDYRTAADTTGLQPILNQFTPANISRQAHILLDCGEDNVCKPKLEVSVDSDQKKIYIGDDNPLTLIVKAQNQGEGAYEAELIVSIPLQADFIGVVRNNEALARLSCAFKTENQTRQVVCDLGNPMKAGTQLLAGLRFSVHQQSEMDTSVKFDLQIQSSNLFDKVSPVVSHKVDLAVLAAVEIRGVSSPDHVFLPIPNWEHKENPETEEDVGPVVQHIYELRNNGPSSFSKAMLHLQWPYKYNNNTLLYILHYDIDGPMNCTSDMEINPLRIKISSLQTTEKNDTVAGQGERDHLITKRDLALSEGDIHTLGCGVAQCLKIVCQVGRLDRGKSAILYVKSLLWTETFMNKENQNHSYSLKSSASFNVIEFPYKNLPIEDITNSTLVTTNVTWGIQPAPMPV
purified soluble αvβ3 integrin (Millipore), sequence (P05106 27-718, chain 2 of 2): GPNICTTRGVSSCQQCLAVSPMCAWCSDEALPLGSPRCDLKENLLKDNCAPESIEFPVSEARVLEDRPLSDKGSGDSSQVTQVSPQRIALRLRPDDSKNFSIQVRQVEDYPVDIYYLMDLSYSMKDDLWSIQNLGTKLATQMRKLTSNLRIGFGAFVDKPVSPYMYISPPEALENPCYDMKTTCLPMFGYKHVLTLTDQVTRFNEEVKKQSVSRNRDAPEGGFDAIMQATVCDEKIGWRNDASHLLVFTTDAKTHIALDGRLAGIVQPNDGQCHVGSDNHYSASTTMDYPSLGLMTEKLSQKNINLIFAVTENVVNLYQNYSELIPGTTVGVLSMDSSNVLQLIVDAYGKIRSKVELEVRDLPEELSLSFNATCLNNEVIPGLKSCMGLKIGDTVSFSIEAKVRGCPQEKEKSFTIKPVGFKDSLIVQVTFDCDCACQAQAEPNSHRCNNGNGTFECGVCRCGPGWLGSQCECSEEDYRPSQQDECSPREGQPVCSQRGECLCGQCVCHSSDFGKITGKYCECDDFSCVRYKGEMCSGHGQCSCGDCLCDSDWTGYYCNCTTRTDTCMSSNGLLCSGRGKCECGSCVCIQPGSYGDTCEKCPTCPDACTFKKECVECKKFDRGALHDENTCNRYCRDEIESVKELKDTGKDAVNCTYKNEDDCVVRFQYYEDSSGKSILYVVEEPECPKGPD

soluble recombinant α5β1 integrin (R&D Systems), sequence (P08648 42-995, chain 1 of 2): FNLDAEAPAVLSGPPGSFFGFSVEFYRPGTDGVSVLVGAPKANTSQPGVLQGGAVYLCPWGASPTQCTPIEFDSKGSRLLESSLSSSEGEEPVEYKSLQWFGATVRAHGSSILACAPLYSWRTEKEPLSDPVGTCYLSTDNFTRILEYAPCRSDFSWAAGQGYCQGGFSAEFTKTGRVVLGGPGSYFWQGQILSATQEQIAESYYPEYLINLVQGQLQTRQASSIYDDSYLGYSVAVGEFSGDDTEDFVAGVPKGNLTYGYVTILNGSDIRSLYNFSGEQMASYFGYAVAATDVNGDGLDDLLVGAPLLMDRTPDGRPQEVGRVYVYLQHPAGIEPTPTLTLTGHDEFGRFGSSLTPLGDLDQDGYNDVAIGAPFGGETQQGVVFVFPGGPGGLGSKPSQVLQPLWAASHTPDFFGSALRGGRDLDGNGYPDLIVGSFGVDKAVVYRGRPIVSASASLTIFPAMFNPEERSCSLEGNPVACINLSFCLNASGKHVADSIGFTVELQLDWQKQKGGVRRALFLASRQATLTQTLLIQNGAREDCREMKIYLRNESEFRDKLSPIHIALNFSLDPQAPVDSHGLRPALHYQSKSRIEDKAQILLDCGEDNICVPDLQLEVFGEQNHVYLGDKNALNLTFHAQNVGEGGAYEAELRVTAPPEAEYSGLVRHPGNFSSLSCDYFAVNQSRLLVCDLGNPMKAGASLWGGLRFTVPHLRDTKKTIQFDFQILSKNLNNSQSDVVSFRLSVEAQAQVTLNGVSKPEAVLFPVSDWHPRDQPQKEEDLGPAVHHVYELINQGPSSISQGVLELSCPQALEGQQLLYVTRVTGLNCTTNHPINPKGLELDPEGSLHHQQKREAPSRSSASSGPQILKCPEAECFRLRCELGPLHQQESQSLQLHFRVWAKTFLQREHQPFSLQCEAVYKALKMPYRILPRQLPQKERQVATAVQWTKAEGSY
soluble recombinant α5β1 integrin (R&D Systems), sequence (P05556 21-728, chain 2 of 2): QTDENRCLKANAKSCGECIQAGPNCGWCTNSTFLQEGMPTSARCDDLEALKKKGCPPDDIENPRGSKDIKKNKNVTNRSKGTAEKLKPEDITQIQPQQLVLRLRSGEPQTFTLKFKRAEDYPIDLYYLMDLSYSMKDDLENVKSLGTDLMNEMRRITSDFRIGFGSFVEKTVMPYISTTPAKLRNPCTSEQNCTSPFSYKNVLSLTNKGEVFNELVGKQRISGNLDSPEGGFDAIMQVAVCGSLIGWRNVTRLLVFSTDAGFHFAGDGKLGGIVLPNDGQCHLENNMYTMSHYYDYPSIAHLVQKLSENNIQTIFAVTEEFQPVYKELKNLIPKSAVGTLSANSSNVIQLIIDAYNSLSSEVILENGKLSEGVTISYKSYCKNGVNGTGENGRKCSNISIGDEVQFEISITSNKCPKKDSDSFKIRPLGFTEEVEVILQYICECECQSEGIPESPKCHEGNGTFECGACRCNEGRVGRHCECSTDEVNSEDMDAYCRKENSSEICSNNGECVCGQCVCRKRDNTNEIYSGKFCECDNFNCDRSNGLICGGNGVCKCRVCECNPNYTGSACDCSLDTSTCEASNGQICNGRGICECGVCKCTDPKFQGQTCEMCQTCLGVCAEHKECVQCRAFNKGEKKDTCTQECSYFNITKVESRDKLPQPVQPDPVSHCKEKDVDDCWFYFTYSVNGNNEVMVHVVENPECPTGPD
purified soluble αvβ5 integrin (Millipore), sequence (P06756 31-992, chain 1 of 2): as the sequence (P06756 31-992, chain 1 of 2) above
purified soluble αvβ5 integrin (Millipore), sequence (P18084 24-719, chain 2 of 2): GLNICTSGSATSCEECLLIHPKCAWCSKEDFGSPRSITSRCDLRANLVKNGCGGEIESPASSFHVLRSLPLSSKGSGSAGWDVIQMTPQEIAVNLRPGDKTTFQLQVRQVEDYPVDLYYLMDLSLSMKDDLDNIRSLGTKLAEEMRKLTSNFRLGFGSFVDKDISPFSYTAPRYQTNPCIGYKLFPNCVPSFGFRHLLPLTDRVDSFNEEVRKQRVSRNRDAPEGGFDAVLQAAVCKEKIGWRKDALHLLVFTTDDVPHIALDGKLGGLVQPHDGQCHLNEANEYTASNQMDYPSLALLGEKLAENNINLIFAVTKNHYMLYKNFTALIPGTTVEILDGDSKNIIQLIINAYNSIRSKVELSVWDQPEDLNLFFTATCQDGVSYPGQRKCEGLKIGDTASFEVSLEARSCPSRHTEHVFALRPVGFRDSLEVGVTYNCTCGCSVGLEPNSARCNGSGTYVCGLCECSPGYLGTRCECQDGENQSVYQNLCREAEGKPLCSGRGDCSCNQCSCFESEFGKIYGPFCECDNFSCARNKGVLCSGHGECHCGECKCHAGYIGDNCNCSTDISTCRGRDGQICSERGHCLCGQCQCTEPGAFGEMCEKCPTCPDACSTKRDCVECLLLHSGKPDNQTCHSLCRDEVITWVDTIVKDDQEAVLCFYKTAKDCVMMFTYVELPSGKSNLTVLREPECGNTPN

B1: Contortrostatin (CN), native, purified from Agkistrodon contortrix contortrix venom (ligand)
chain: DAPANPCCDAATCKLTTGSQCADGLCCDQCKFMKEGTVCRRARGDDLDDYCNGISAGCPRNPFH
For B1, the values for the Kd in assay [1], in assay [2] and in assay [3] were 191 nM, 19.5 nM and 6.6 nM, respectively.
